# Source: US20220064278A1 (Janssen / Centocor, published 2022)
# How the values were obtained:
# [1] = biological target: T1, recombinant human TNFα (human, UniProt P01375 77-233); assay: cell-based or functional assay
# [2] = biological target: T1, recombinant human TNFα; assay: inhibition of 125I-TNFα binding to plate-coated p55-sf2 by hybridoma supernatant
# [3] = biological target: T1, recombinant human TNFα; assay: competition: mAb in hybridoma supernatant preincubated with 5 ng/ml 125I-TNFα, mixture added to plate-coated p55-sf2, cpm bound counted; blocked ligand p55-sf2
binder,measurement,setting,value
"TNV148 (antibody, V domains shown) VH: QVQLVESGGGVVQPGRSLRLSCAASGFIFSSYAMHWVRQAPGNGLEWVAFMSYDGSNKKYADSVKGRFTISRDNPKNTLYLQMNSLRAEDTAVYYCARDRGIAAGGNYYYYGMDVWGQGTTVTVSS VL: EIVLTQSPATLSLSPGERATLSCRASQSVYSYLAWYQQKPGQAPRLLIYDASNRATGIPARFSGSGSGTDFTLTISSLEPEDFAVYYCQQRSNWPPFTFGPGTKVDIKR",neutralizing TNFα bioactivity,[1],4 fold (against TNV14)
same,fold better at blocking TNF binding than TNV118 and TNV14,[2],~4 fold
same,IC50 (read off the curve),[3],~4 ng/mL
"TNV196 (antibody, V domains shown) VH: QVQLVESGGGVVQPGRSLRLSCAASGFTFSSYAMHWVRQAPGKGLEWVAFISYDGSNKKSADSVKGRFTVSRDNSKNTLFLQMNSLRAEDTAVFYCARDRGIGAGGNYYYYGMDVWGQGTTVTVSS VL: EIVLTQSPATLSLSPGERATLSCRASQSVYSYLAWYQQKPGQAPRLLIYDASNRATGIPARFSGSGSGTDFTLTISSLEPEDFAVYYCQQRSNWPPFTFGPGTKVDIK",neutralizing TNFα bioactivity,[1],4 fold (against TNV14)
same,IC50 (read off the curve),[3],~4 ng/mL
"TNV15 (antibody, V domains shown) VH: QVQLVESGGGVVQPGRSLRLSCAASGFTFSSYAMHWVRQAPGKGLEWVAFILYDGSNKKYADSVKGRFTISRDNSKNALYLQMNSLRAEDTAVYYCARDRGVSAGGNYYYYGMDVWGQGTTVTVSS VL: EIVLTQSPATLSLSPGERATLSCRASQSVSSYLAWYQQKPGQAPRLLIYDASNRATGIPARFSGSGSGTDFTLTISSLEPEDFAVYYCQQRSNWPPFTFGPGTKVDIK",IC50 (read off the curve),[3],~4 ng/mL
